The values below come from the supplement of paper PMC5998384.

Series [1] relates to HeLa Kyoto. Briefly: thermal stability score vs G1/S (z-score of summed log2 fold changes over temperatures); higher = more thermally stable than in G1/S.
For series [2], the system named is HeLa Kyoto. The series can be described thus: solubility change mitosis vs G1/S (difference of NP-40 vs SDS log2 ratios) (log2 ratio difference); higher = more soluble in mitosis.
Series [3] deals with HeLa Kyoto. Briefly: melting temperature (median over replicates), in situ; higher = more thermally stable.
Series [4] concerns HeLa Kyoto. The series can be described thus: solubility in G1/S (NP-40 vs SDS abundance) (log2 ratio); higher = more soluble. Conditions: cell cycle stage: G1/S.
The mark [5] stands for this setting: cell cycle stage: early G1 (4.5 h after nocodazole release).
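Wherever melting temperature (median over replicates), in situ is given: HeLa Kyoto cells synchronized by double thymidine or nocodazole block, proteins quantified by TMT10plex mass spectrometry, three independent biological replicates.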
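Wherever solubility change mitosis vs G1/S (difference of NP-40 vs SDS log2 ratios) is given: synchronized HeLa Kyoto cells (double thymidine block for G1/S, nocodazole release for mitosis), protein amounts in NP-40 versus SDS lysates quantified by mass spectrometry, three biological replicates.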
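Wherever solubility in G1/S (NP-40 vs SDS abundance) is given: HeLa Kyoto cells arrested at G1/S by double thymidine block, proteins quantified by TMT10plex mass spectrometry in mild NP-40 versus SDS extracts, three biological replicates.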
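Wherever thermal stability score vs G1/S (z-score of summed log2 fold changes over temperatures) is given: synchronized HeLa Kyoto cells, proteins quantified by TMT10plex mass spectrometry, three biological replicates, mitosis taken 0.5 h after nocodazole release, G1/S directly after double thymidine block.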

For “MASGRRAPRTGLLELRAGAGSGAGGERWQRVLLSLAEDVLTVSPADGDPGPEPGAPREQEPAQLNGAAEPGAGPPQLPEALLLQRRRVTVRKADAGGLGISIKGGRENKMPILISKIFKGLAADQTEALFVGDAILSVNGEDLSSATHDEAVQVLKKTGKEVVLEVKYMKDVSPYFKNSTGGTSVGWDSPPASPLQRQPSSPGPTPRNFSEAKHMSLKMAYVSKRCTPNDPEPRYLEICSADGQDTLFLRAKDEASARSWATAIQAQVNTLTPRVKDELQALLAATSTAGSQDIKQIGWLTEQLPSGGTAPTLALLTEKELLLYLSLPETREALSRPARTAPLIATRLVHSGPSKGSVPYDAELSFALRTGTRHGVDTHLFSVESPQELAAWTRQLVDGCHRAAEGVQEVSTACTWNGRPCSLSVHIDKGFTLWAAEPGAARAVLLRQPFEKLQMSSDDGASLLFLDFGGAEGEIQLDLHSCPKTIVFIIHSFLSAKVTRLGLLA [SNTA1]”, the results for the thermal stability score in the series on HeLa Kyoto [1] (setting [5]) and in the series on HeLa Kyoto [1] (cell cycle stage: mitosis) were -0.161 and 0.249, respectively. For the same sequence, the “solubility change mitosis (log2)” value in the series on HeLa Kyoto [2] was -0.136. For the same sequence, the melting temperature in the series on HeLa Kyoto [3] (cell cycle stage: G1/S) stood at 51.2 °C; in the series with HeLa Kyoto [3] (cell cycle stage: mitosis), 49.2 °C. In the series with HeLa Kyoto [4], the “solubility in G1/S (log2)” value was 0.0927.

“MRLLRRRHMPLRLAMVGCAFVLFLFLLHRDVSSREEATEKPWLKSLVSRKDHVLDLMLEAMNNLRDSMPKLQIRAPEAQQTLFSINQSCLPGFYTPAELKPFWERPPQDPNAPGADGKAFQKSKWTPLETQEKEEGYKKHCFNAFASDRISLQRSLGPDTRPPECVDQKFRRCPPLATTSVIIVFHNEAWSTLLRTVYSVLHTTPAILLKEIILVDDASTEEHLKEKLEQYVKQLQVVRVVRQEERKGLITARLLGASVAQAEVLTFLDAHCECFHGWLEPLLARIAEDKTVVVSPDIVTIDLNTFEFAKPVQRGRVHSRGNFDWSLTFGWETLPPHEKQRRKDETYPIKSPTFAGGLFSISKSYFEHIGTYDNQMEIWGGENVEMSFRVWQCGGQLEIIPCSVVGHVFRTKSPHTFPKGTSVIARNQVRLAEVWMDSYKKIFYRRNLQAAKMAQEKSFGDISERLQLREQLHCHNFSWYLHNVYPEMFVPDLTPTFYGAIKNLGTNQCLDVGENNRGGKPLIMYSCHGLGGNQYFEYTTQRDLRHNIAKQLCLHVSKGALGLGSCHFTGKNSQVPKDEEWELAQDQLIRNSGSGTCLTSQDKKPAMAPCNPSDPHQLWLFV [GALNT6]”: the thermal stability score in the series with HeLa Kyoto [1] (setting [5]) came to 4; in the series with HeLa Kyoto [1] (cell cycle stage: mitosis), 5.54. Besides, the “solubility change mitosis (log2)” value in the series on HeLa Kyoto [2] was -0.117. For the same sequence, the melting temperature with HeLa Kyoto [3] (cell cycle stage: G1/S) is 53.6 °C; in the series with HeLa Kyoto [3] (cell cycle stage: mitosis), 53.2 °C. Further, in the series with HeLa Kyoto [4], the “solubility in G1/S (log2)” value came to 0.0486.

As to “MAASSISSPWGKHVFKAILMVLVALILLHSALAQSRRDFAPPGQQKREAPVDVLTQIGRSVRGTLDAWIGPETMHLVSESSSQVLWAISSAISVAFFALSGIAAQLLNALGLAGDYLAQGLKLSPGQVQTFLLWGAGALVVYWLLSLLLGLVLALLGRILWGLKLVIFLAGFVALMRSVPDPSTRALLLLALLILYALLSRLTGSRASGAQLEAKVRGLERQVEELRWRQRRAAKGARSVEEE [TMEM109]”, the values for the thermal stability score in the series on HeLa Kyoto [1] (setting [5]) and in the series with HeLa Kyoto [1] (cell cycle stage: mitosis) were -3.9 and -4.03, respectively. Moreover, the “solubility change mitosis (log2)” value in the series with HeLa Kyoto [2] was -0.14. In addition, the melting temperature in the series on HeLa Kyoto [3] (cell cycle stage: G1/S) was found to be 54.6 °C; in the series with HeLa Kyoto [3] (cell cycle stage: mitosis), 53.8 °C. Moreover, the “solubility in G1/S (log2)” value with HeLa Kyoto [4] is -0.0444.

Consider “MERSPGEGPSPSPMDQPSAPSDPTDQPPAAHAKPDPGSGGQPAGPGAAGEALAVLTSFGRRLLVLIPVYLAGAVGLSVGFVLFGLALYLGWRRVRDEKERSLRAARQLLDDEEQLTAKTLYMSHRELPAWVSFPDVEKAEWLNKIVAQVWPFLGQYMEKLLAETVAPAVRGSNPHLQTFTFTRVELGEKPLRIIGVKVHPGQRKEQILLDLNISYVGDVQIDVEVKKYFCKAGVKGMQLHGVLRVILEPLIGDLPFVGAVSMFFIRRPTLDINWTGMTNLLDIPGLSSLSDTMIMDSIAAFLVLPNRLLVPLVPDLQDVAQLRSPLPRGIIRIHLLAARGLSSKDKYVKGLIEGKSDPYALVRLGTQTFCSRVIDEELNPQWGETYEVMVHEVPGQEIEVEVFDKDPDKDDFLGRMKLDVGKVLQASVLDDWFPLQGGQGQVHLRLEWLSLLSDAEKLEQVLQWNWGVSSRPDPPSAAILVVYLDRAQDLPLKKGNKEPNPMVQLSIQDVTQESKAVYSTNCPVWEEAFRFFLQDPQSQELDVQVKDDSRALTLGALTLPLARLLTAPELILDQWFQLSSSGPNSRLYMKLVMRILYLDSSEICFPTVPGCPGAWDVDSENPQRGSSVDAPPRPCHTTPDSQFGTEHVLRIHVLEAQDLIAKDRFLGGLVKGKSDPYVKLKLAGRSFRSHVVREDLNPRWNEVFEVIVTSVPGQELEVEVFDKDLDKDDFLGRCKVRLTTVLNSGFLDEWLTLEDVPSGRLHLRLERLTPRPTAAELEEVLQVNSLIQTQKSAELAAALLSIYMERAEDLPLRKGTKHLSPYATLTVGDSSHKTKTISQTSAPVWDESASFLIRKPHTESLELQVRGEGTGVLGSLSLPLSELLVADQLCLDRWFTLSSGQGQVLLRAQLGILVSQHSGVEAHSHSYSHSSSSLSEEPELSGGPPHITSSAPELRQRLTHVDSPLEAPAGPLGQVKLTLWYYSEERKLVSIVHGCRSLRQNGRDPPDPYVSLLLLPDKNRGTKRRTSQKKRTLSPEFNERFEWELPLDEAQRRKLDVSVKSNSSFMSRERELLGKVQLDLAETDLSQGVARWYDLMDNKDKGSS [ESYT1]”, for which the thermal stability score in the series with HeLa Kyoto [1] (setting [5]) stood at 2.16; in the series with HeLa Kyoto [1] (cell cycle stage: mitosis) it was 4.68. Further, in the series with HeLa Kyoto [2], the “solubility change mitosis (log2)” value was -0.113. Also, the results for the melting temperature in the series on HeLa Kyoto [3] (cell cycle stage: G1/S) and in the series with HeLa Kyoto [3] (cell cycle stage: mitosis) were 49.1 °C and 50.1 °C, respectively. Moreover, in the series with HeLa Kyoto [4], the “solubility in G1/S (log2)” value came out at 0.0161.
